Experimental data published in patent US20220332804A1 (CSL INNOVATION, published 2022).

Columns and labels:
Experiment in all cases: SPR; KD relative to WT C2;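 further: biacore SPR at 37 °C, anti-C2 mAbs captured on an anti-human IgG chip, alanine or serine C2 surface mutants tested, KD from 1:1 fit compared with wild-type C2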
human C2 E450A = target: T1, human C2 E450A (human, UniProt P06681 21-752)
T1 sequence: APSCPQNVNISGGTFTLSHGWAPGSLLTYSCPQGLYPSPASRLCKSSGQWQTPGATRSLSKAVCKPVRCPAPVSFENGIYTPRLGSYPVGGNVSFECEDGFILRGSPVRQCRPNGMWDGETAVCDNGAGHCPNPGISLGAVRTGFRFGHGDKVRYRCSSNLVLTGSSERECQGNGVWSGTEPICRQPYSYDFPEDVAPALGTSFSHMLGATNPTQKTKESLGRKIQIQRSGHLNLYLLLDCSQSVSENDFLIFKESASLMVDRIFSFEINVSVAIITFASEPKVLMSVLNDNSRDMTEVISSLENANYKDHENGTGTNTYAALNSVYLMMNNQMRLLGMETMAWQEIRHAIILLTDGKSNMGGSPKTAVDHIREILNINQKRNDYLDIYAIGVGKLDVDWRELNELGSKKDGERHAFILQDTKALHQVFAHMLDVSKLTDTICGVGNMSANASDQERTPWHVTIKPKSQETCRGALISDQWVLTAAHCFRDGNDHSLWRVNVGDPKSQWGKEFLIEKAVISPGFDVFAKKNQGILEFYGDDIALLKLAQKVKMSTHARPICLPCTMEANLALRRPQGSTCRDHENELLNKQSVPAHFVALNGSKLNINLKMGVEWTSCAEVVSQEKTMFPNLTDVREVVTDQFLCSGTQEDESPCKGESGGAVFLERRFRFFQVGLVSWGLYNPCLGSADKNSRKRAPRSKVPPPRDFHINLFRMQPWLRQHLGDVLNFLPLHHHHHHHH

human C2 L453A = target: T2, human C2 L453A (human, UniProt P06681 21-752)
T2 sequence: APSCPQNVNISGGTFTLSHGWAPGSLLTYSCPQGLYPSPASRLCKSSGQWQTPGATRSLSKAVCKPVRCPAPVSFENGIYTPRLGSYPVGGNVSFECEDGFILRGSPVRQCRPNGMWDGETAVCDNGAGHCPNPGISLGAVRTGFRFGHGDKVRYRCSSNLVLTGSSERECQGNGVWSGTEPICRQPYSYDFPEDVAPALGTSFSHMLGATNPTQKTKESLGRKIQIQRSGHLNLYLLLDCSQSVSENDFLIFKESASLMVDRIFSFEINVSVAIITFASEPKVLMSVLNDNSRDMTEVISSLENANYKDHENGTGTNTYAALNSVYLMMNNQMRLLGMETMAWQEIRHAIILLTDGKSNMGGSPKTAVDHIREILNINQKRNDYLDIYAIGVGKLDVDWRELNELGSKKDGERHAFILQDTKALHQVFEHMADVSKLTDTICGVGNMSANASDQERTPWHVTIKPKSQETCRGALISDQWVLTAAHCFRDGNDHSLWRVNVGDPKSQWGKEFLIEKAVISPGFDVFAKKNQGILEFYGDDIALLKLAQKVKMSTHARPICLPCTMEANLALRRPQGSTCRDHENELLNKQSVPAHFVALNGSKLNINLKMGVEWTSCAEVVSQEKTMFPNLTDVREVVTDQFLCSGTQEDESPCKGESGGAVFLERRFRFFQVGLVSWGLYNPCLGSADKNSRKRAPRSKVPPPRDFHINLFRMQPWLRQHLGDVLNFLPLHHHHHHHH

human C2 V418A = target: T3, human C2 V418A (human, UniProt P06681 21-752)
T3 sequence: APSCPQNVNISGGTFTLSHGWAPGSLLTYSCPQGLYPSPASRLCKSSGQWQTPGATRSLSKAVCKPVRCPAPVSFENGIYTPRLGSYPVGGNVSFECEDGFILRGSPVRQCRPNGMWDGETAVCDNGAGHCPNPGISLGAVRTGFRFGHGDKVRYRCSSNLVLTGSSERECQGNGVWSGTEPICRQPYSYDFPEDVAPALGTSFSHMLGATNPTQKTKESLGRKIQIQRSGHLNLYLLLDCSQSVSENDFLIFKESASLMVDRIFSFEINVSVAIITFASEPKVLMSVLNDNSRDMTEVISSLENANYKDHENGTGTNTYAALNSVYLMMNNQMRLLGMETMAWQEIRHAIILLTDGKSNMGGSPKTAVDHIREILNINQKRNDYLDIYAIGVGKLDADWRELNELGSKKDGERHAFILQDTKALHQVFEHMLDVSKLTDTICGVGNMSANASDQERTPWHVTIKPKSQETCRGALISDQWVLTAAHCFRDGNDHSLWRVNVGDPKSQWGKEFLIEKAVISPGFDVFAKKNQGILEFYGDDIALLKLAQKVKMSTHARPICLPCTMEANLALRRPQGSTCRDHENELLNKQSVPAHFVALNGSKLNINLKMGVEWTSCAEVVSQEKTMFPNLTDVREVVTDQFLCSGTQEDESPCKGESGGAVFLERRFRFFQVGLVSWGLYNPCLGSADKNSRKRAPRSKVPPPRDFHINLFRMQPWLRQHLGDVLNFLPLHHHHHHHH

human C2 K329A = target: T4, human C2 K329A (human, UniProt P06681 21-752)
T4 sequence: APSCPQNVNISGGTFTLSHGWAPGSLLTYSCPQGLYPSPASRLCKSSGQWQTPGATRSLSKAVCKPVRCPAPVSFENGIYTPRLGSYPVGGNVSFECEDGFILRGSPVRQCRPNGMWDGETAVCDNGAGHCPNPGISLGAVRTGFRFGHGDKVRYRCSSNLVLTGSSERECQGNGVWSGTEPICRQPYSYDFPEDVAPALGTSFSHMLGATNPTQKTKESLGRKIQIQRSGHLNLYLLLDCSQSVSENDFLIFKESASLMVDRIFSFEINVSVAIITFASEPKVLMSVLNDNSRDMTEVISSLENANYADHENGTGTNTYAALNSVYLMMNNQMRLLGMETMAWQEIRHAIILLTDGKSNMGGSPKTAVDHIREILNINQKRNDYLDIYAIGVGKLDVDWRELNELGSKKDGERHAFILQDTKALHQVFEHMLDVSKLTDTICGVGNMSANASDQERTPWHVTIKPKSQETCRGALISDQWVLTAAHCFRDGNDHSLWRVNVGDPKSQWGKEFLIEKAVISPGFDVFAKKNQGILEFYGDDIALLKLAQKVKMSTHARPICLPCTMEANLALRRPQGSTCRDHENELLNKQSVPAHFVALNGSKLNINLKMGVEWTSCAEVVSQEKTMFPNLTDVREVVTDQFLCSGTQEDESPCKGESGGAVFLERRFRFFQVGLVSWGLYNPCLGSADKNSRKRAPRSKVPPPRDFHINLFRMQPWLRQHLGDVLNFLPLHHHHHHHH

Fold diff (human C2 E450A): 20 fold
Fold diff (human C2 L453A): 45 fold
Fold diff (human C2 V418A): 1 fold
Fold diff (human C2 K329A): 2 fold
B1: RF16-214 (antibody, V domains shown)
VH: EVQLLESGGGLVQPGGSLRLSCAASGFTFSWYQMMWVRQAPGKGLEWVSRIYPSGGGTAYADSVKGRFTISRDNSKNTLYLQMNSLRAEDTAVYYCARDAGYGDNWGQGTLVTVSS
VL: QSALTQPPSVSVSPGQTASITCSGDKLGEKYASWYQQKAGQSPVMVIYQDRKRPSGIPERFSGSNSGNTATLTISGTQAMDEADYYCQAWDTRAVVFGGGTKLTVLG
